The results in this text go back to patent publication US20200017592A1 (Regeneron, published 2020).

For assay [1], the target named is T1, full-length human IL-36R on cells (human, UniProt Q9HB29 20-575).
T1 sequence (looked up): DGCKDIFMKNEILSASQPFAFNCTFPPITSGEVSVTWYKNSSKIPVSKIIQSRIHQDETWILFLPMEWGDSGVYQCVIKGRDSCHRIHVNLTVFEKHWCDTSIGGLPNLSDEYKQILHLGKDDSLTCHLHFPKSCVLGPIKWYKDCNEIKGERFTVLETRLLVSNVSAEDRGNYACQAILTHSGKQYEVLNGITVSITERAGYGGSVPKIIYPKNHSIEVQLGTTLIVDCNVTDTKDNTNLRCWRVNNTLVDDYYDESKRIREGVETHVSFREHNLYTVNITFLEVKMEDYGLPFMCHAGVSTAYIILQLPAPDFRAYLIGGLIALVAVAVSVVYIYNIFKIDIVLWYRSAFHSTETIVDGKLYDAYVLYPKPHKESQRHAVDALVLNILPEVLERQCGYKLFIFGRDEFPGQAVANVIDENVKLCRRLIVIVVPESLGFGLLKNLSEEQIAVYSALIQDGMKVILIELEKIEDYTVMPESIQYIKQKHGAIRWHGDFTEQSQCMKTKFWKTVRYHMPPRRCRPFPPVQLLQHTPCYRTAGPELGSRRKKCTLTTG
Put plainly: cell-based or functional assay.

Assay [2] deals with T2, recombinant human IL-36R extracellular domain expressed with a C-terminal myc-myc-hexahistidine tag (human, UniProt Q9HB29 20-337).
T2 construct: also called hIL-36R-MMH; hIL-36R.mmH
As to the kind of experiment: SPR (Biacore 4000), mAb captured on anti-human Fc, 37°C. The method, then: (§1) Equilibrium dissociation constants (KD values) for IL-36R binding to purified anti-IL-36R antibodies were determined using a real-time surface plasmon resonance biosensor using a Biacore 4000 instrument. The Biacore sensor surface was first derivatized by amine coupling with a monoclonal mouse anti-human Fc antibody (GE, # BR-1008-39) to capture anti-IL-36R monoclonal antibodies. All binding studies were performed in 0.01 M Hepes pH 7.4, 0.15 M NaCl, 3 mM EDTA, and 0.05% v/v Surfactant Tween-20 (HBS-ET running buffer) at 25° C. and 37° C. Different concentrations of IL-36R reagents, human IL-36R extracellular domain expressed with a C-terminal myc-myc-hexahistidine tag (hIL-36R-MMH), Macaca fascicularis IL-36R extracellular domain expressed with a C-terminal myc-myc-hexahistidine tag (mfIL-36R-MMH: mROR1 signal sequence (M1-A29). Macaca fascicularis IL36R_ecto domain (D20-A336).mycmycHis6), human IL-36R extracellular domain expressed with a C-terminal mouse IgG2a Fc tag (hIL-36R-mFc: mROR1 signal sequence (M1-A29)-human IL36R (D20-Y337)-mouse IgG2aFc (E98-K330)) or an in-line fusion protein of human IL-36R extracellular domain and IL1RAcP extracellular domain expressed with mouse IgG2a Fc tag (hIL-36R-Trap-mFc: mROR1 signal sequence (M1-A29)-human IL36R ecto domain (D20-Y337)-human IL1RacP ecto domain(S21-E359)-mouse IgG2aFc) in HBS-ET running buffer (ranging from 100 nM to 3.7 nM, 3-fold dilutions) were injected over the anti-IL-36R antibody captured surface for 4 minutes at a flow rate of 30 μL/minute and their dissociation in HBS-ET running buffer was monitored for 10 minutes. Kinetic association rate constant (kₐ) and dissociation rate constant (kd) were determined by fitting the real-time sensorgrams to a 1:1 binding model using Scrubber 2.0c curve fitting software. Binding dissociation equilibrium constants (KD) and dissociative half-lives (t_{1/2}) were calculated from the kinetic rate constants as: […]

The target in assay [3] is T2, recombinant human IL-36R extracellular …. As to the kind of experiment: SPR (Biacore 4000), mAb captured on anti-human Fc, 25°C. The protocol: as §1
In general terms: Surface plasmon resonance follows binding to a sensor surface in real time, without labels.

B1: H4H14758P (antibody, human IgG4 S228P, kappa, V domains shown)
VH: EVQLVESGGGLVQPGRSLRLSCAASGFTFDDYAMHWVRQAPGKGLEWVSSVRWNGGIIGYADSVKGRFTISRDNAKNSLYLQMNSLRPEDTALYYCAKDIGDVLTGYYGEYGMDVWGQGTTVTVSS
VL: DIQMTQSPSSLSASVGDRVTIACRASQSITTYLNWYQQKPGKAPKLLIYAASSLQSGVPSRFSGSGSGTDFTLTISSLQPEDFATYYCQQSYISPYTFGQGTKLEIKR
Turning to B1, in assay [1], the “IC50 [M], NFκB-luciferase, 10 pM hIL-36γ” value was found to be 1.6e-10 M; the “IC50 [M], NFκB-luciferase, 20 pM hIL-36α” value was 1.2e-10 M; the “Max Inhibition (%), NFκB-luciferase, 10 pM hIL-36γ” value was found to be 57%; the “Max Inhibition (%), NFκB-luciferase, 20 pM hIL-36α” value stood at 100%. In assay [2], the “100 nM hIL-36R-MMH Bound (RU)” value came out at 111 RU, the Kd was 15 nM, the koff is 0.00237 s⁻¹ and the kon worked out at 158000 M⁻¹ s⁻¹. Also, the “t½” value in assay [2] was found to be 5 min. Moreover, in assay [3], the “100 nM hIL-36R-MMH Bound (RU)” value was 87 RU, the Kd is 7.63 nM, the koff is 0.000923 s⁻¹ and the on-rate constant (kon) was determined as 121000 M⁻¹ s⁻¹. The “t½” value in assay [3] turned out to be 13 min.

B2: H4H14734P2 (antibody, human IgG4 S228P, kappa, V domains shown)
VH: EVQLVESGGGLVKPGGSLRLSCAASGFIFSNAWMNWVRQAPGKGLAWVGRIKTETDGGTTDYAAPVKGRFTISRDDSKNTLYLQMNSVKTEDTAVYYCTGGYSYGDDSSSWNEGYYYYGMDVWGQGTTVTVSS
VL: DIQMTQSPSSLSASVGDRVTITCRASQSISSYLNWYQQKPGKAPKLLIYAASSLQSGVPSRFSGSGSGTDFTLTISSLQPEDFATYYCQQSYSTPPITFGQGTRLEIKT
As for B2, in assay [2], the “100 nM hIL-36R-MMH Bound (RU)” value is 25 RU, the Kd stood at 13.9 nM, the koff turned out to be 0.000749 s⁻¹ and the kon was found to be 53900 M⁻¹ s⁻¹. Further, the “t½” value in assay [2] stood at 15 min. Besides, in assay [3], the “100 nM hIL-36R-MMH Bound (RU)” value amounted to 22 RU, the Kd came out at 12.2 nM, the koff was determined as 0.000404 s⁻¹ and the kon was found to be 33200 M⁻¹ s⁻¹. The “t½” value in assay [3] is 29 min.

B3: H4H14709P (antibody, human IgG4 S228P, kappa, V domains shown)
VH: EVQLVESGGGLVQPGGSLRLSCAASGFTFSDYAMSWVRQAPGKGLEWVSGISGNGGDTYYGDFVKGRFTISRDNSKNTLYLQMNSLRGEDTAAYFCVIDLDYWGQGTLVTVSS
VL: DIQMTQSPSTLSASEGDRVTITCRASQSISSWLAWYQQKPGKAPRLLIYKASILGDGVPSRFSGSGSGTEFTLTISSLQPDDFATYYCHQYNSYLWTFGQGTKVEIKR
In the case of B3, in assay [1], the “IC50 [M], NFκB-luciferase, 10 pM hIL-36γ” value is 1.3e-10 M; the “IC50 [M], NFκB-luciferase, 20 pM hIL-36α” value stood at 1.4e-10 M; the “Max Inhibition (%), NFκB-luciferase, 10 pM hIL-36γ” value is 24%; the “Max Inhibition (%), NFκB-luciferase, 20 pM hIL-36α” value came to 22%. In assay [2], the “100 nM hIL-36R-MMH Bound (RU)” value stood at 106 RU, the Kd worked out at 4.25 nM, the koff is 0.000554 s⁻¹ and the kon came to 131000 M⁻¹ s⁻¹. The “t½” value in assay [2] stood at 21 min. Also, in assay [3], the “100 nM hIL-36R-MMH Bound (RU)” value is 64 RU, the Kd was 4.09 nM, the koff amounted to 0.000296 s⁻¹ and the association rate constant (kon) came to 72300 M⁻¹ s⁻¹. Also, the “t½” value in assay [3] was found to be 39 min.

What is called Kd is the free concentration of one partner at which half of the binding sites on the other are occupied at equilibrium, for simple one-to-one binding. As a reminder, the koff is the first-order rate constant of dissociation. In general, kon refers to the second-order rate constant of association. A word on the t½: it is the time in which the quantity being followed falls by half.
